# Patent US11136597B2, “Compositions for enhancing targeted gene editing and methods of use thereof” (Yale University, priority 2016, dated 2021)
# Assays:
# F508del CFTR [1] = test: MQAE assay measuring chloride flux in CFBE cells; type: cell-based; conditions: NPs containing γtcPNAs with 4 γ residues in the Hoogsteen domain, versus unmodified PNA
# Source text: (§1) FIG. 7A is a bar graph showing the results of a MQAE (N-(Ethoxycarbonylmethyl)-6-Methoxyquinolinium Bromide) assay (delta(AFU)/(delta(Time (sec)) measuring chloride flux for negative control CFBE cells; CFBE cells treated with blank nanoparticles, PNA2: lys-lys-lys-TJTJJTTT-OOO-TTTCCTCTATGGGTAAG-lys-lys-lys (SEQ ID NO:93)-loaded nanoparticles, PNA2 (SEQ ID NO:93)-loaded nanoparticles with an MPG peptide, γPNA2 lys-lys-lys-TJTJJTTT-OOO-TTTCCTCTATGGGTAAG-lys-lys-lys (SEQ ID NO:69)-loaded nanoparticles; and untreated positive control wildtype 16HBE14o-cells. FIG. 7B is a dot pot showing nasal potential difference (NPD) (pretreatment, after treatment with γPNA2 (SEQ ID NO:69)-loaded nanoparticles, and after treatment with blank nanoparticles) measured using a non-invasive assay used to detect chloride potential differences in vivo.
# (§2) A substantial increase in gene editing in F508del CFTR using γtcPNAs with just partial γ substitution and only in the Hoogsteen domain of CF PNA2.
# F508del CFTR [2] = test: Nasal potential difference (NPD) in CF mice after intranasal delivery; type: in vivo, mouse; conditions: intranasal delivery of NPs
# Source text: as §1, §2
# [3] = tested on: CD117+ cells from β-globin/GFP transgenic mice; test: Ex vivo gene editing in pre-sorted CD117+ cells with or without SCF or c-Kit pathway kinase inhibitors; type: cell-based, mouse
# Description: For CD117+ cell experiments, Iscove's Modified Dulbecco's Media (IMDM) media containing insulin (10 ng/ml), FCS (10%) and erythropoietin (1 U/ml) was used to culture CD117+ cells after isolation using magnetic separation. Where indicated, 3 μg/ml of SCF (Recombinant murine SCF, catalog #250-03, PeproTech, Rocky Hill, N.J.;) was added prior to nanoparticle treatment. 2 mg/ml of NPs were used to treat 50,000-100,000 CD117+ cells in triplicate for 48 hrs in the above media, followed by flow cytometry analyses as above. Inhibitors were used at concentrations of 200 nM (dasatinib), 1.0 μM (MEK162) and 3.0 μM (BKM120). Dasatanib was obtained from Cayman Chemical (Ann Arbor, Mich.; item #11498) and dissolved according to manufacturer's protocol. MEK162 and BKM120 were obtained from Dr. Harriet Kluger, Yale University.
# BD Bioscience kit catalog #558451 (BDImag™ Hematopoietic Progenitor Stem Cell Enrichment Set—DM) was used to isolate CD117 cells. Enrichment for CD117 was confirmed by flow cytometry. CD117+ enriched cells were labeled with CD117-APC (BD Pharmingen™ catalog #558451) antibody. Cells were co-labelled with control IgG antibody (BD Pharmingen™ catalog #555746) for gating purposes. To quantify GFP expression, after CD117 co-labelling, flow cytometry was performed using FACScaliburS by resuspending cells in PBS/1% FBS where green fluorescent cells are measured in the Fl1 channel and APC stained cells are in the Fl4 channel Antibodies for other markers were Ter119 (BD Pharmingen™ catalog #561033) and CD45 APC (BD Pharmingen™ catalog #561018).
# To explore the mechanism of the increased gene editing in CD117+ cells, the requirement of c-Kit-dependent signaling for elevated gene correction or whether CD117 simply serves as a marker for the increased susceptibility to gene editing was distinguished. To do this, γtcPNA4/donor DNA NP-mediated gene editing was assayed in pre-sorted CD117+ cells in the presence or absence of selected kinase inhibitors (FIG. 2D). Dasatinib, which inhibits the c-Kit kinase in addition to the BCR/Abl and Src kinases, reduced the gene editing from 7% to 2.0%.
# [4] = tested on: DNA repair genes (Rad51, BRCA2); test: Gene expression profiling of SCF-treated versus untreated CD117+ cells; type: cell-based, mouse
# [5] = tested on: homology-dependent repair (HDR); test: Luciferase reporter gene assay for homology-dependent repair (HDR) in CD117+ cells; type: cell-based, mouse
# Description: An inactivating I-Sce1 site was cloned 56 amino acids into the firefly luciferase open reading frame under the control of a CMV promoter. The reporter construct also contains a promoterless luciferase gene used as a template for homologous recombination. A double-strand break in the luciferase reporter is created by in vitro digestion with the I-Sce I restriction enzyme (NEB #R0694L). Plasmid DNA was digested with I-Sce 1 for 1 hour at 37° C. at a ratio of 10 units enzyme to 1 μg DNA and then the enzyme was inactivated at 65° C. for 20 minutes. The linearization of the plasmid was confirmed for each digestion via gel electrophoresis and the linear plasmid was purified using the Qiagen Qiaquick spin columns. After separation CD117+ and CD117-cells from bone marrow of β-globin/GFP transgenic mice, cells were transfected using the Lonza 2b Nucleofector Device. 5×10^5 cells were transfected with 1 μg of either the luciferase reporter vector or a positive control firefly luciferase expression vector, along with 50 ng of a renilla luciferase expression plasmid as a transfection efficiency control. All transfections were performed in triplicate. After transfection the cells were plated at a density of 5×10^5 cells/ml in 12-well plates. After 24 hours incubation post transfection, luciferase activity was measured using the Promega Dual Luciferase Assay Kit. In each sample firefly luciferase activity was normalized to the renilla luciferase transfection control. Reporter reactivation was calculated as a ratio of normalized firefly luciferase activity in the cells transfected with the reporter plasmid to the positive control.
# To test whether the above increases in DNA repair gene expression could be correlated with functional differences in DNA repair, a luciferase-based assay was used to quantify repair of DNA double-strand breaks (DSBs) by HDR. In this assay, repair of a DSB in a reporter plasmid via intramolecular homologous recombination creates (“reactivates”) a functional luciferase gene (FIG. 2H), and so the assay provides a measure of HDR capacity (FIG. 2J).
# [6] = tested on: human β-globin gene with the thalassemia-associated IVS2-654 mutation; test: Disease phenotype in IVS2-654 β-thalassemic mice (blood smears, CBC, reticulocytes, spleen); type: in vivo, mouse; conditions: day 36 after last treatment, four treatments at two-day intervals, SCF i.p., NPs i.v.
# Description: The IVS2-654 β-thalassemic mice were also obtained from Ryszard Kole, University of North Carolina (Svasti, et al., Proc Natl Acad Sci USA, 106:1205-1210 (2009)). For treatment of the mice, where indicated SCF (15.6 ug per mouse, Recombinant Mouse SCF, carrier-free, R&D catalog #455-mc-050/CF) was injected intraperitoneally 3 hrs prior to treatment with 4 mg of NPs in 150 μl PBS delivered via retro-orbital intravenous injection. Each mouse received 4 treatments given at 48 hr intervals. Mice were anesthetized with isoflurane followed by retro-orbital bleeding (˜100 μL) using ethylenediaminetetraacetic acid-treated glass capillary tubes. The blood was evacuated into tubes with 5 μL of 0.5 M EDTA acid in heparinized coated tubes. Complete blood counts were performed using a Hemavet 950FS (Drew Scientific, Oxford, Conn.) according to the manufacturer's protocol. Slides containing blood smears were stained with Wright and Giemsa stain for microscopy. Methylene blue staining was used for reticulocyte counts. Spleen images and weights were taken after selected mice were sacrificed on day 36 after the last treatment. Harvested spleens were fixed in 10% neutral buffered formalin and processed by Yale Pathology Tissue Services for H&E, CD61 and E cadherin staining. […]
Molecule,increase in activity for CFTR gene correction (MQAE assay) (F508del CFTR [1]),activity in vivo by NPD measurements (F508del CFTR [2]),change of gene editing frequency on SCF treatment ([3]; CD117+ cells),"gene editing frequency in CD117+ cells treated with SCF ([3]; γtcPNA4/donor DNA NPs, 3 μg/ml SCF added prior to nanoparticle treatment) [%]",DNA repair gene expression [4],HDR repair activity (luciferase reactivation) in CD117+ cells ([5]; CD117+ cells),fold increase in HDR ([5]; CD117+ cells treated with SCF) [fold],RBC morphology in blood smears [6]
"lys-lys-lys-TJTJJTTT-OOO-TTTCCTCTATGGGTAAG-lys-lys-lys (lysine caps, linker, γ residues, in nanoparticles, as printed in the source, key not given here) [γPNA2, CF PNA2 with 4 γ residues in the Hoogsteen domain, delivered in nanoparticles]",more than 50%,substantial increase in activity,,,,,,
"SCF: recombinant murine stem cell factor, the ligand for c-Kit (protein) MKEICGNPVTDNVKDITKLVANLPNDYMITLNYVAGMDVLPSHCWLRDMVIQLSLSLTTLLDKFSNISEGLSNYSIIDKLGKIVDDLVLCMEENAPKNIKESPKRPETRSFTPEEFFSIFNRSIDAFKDFMVASDTSDCVLSSTLGPEKDSRVSVTKPFMLPPVA",,,almost doubles the frequency,~15,additional up-regulation of numerous DNA repair genes,further boosted,2,not
